Results as given in patent US10487337B2, “Methods for monocot plant improvement” (Agresearch Limited, priority 2014, dated 2019).

Experiments:
Arabidopsis Δppd mutant = test: Complementation of the Arabidopsis Δppd mutant leaf phenotype; assay type: in vivo; details: CaMV35s promoter, Arabidopsis thaliana ecotype Landsberg erecta, FIG. 13
Excerpt: The functionality of any PEAPOD sequence can be confirmed by complementation of the Arabidopsis Δppd mutant leaf phenotype. Complementation of the Arabidopsis Δppd mutant leaf phenotype was first used to identify the Arabidopsis PPD gene (White 2006). This was seen by a restoration of the wild type flattened leaf phenotype and normal rosette shape as opposed to the domed leaf and the twisting of the rosette to a “propeller” phenotype.
Arabidopsis thaliana (L.) Heynh ecotype Ler can be used as wild-type (WT). The Δppd loss of function deletion mutant (with PPD1 and PPD2 deleted) is as previously described in White 2006, PNAS 103, 13238-13243.
Plants are grown in a temperature-controlled glasshouse at a continuous 21° C. or in a controlled environment cabinet at 23° C. in 16-h light_8-h dark cycles.
Constructs above can be transformed into Arabidopsis by the floral dip infiltration method (Clough and Bent, 1998, Plant J 16, 735-43). The Δppd line is transformed to express the PPD polypeptides by standard techniques. Transgenic plants are confirmed by standard PCR analysis techniques with a combination of transgene-specific and T-DNA primers.
Complementation of the Δppd line to produce a wild-type leaf and rosette phenotype in T1 seedlings (the off-spring of the infiltrated plant) confirms PEAPOD functionality of the introduced gene, which can be shown in photographs.

NINJA = molecular target: T1, NINJA (Arabidopsis thaliana, UniProt Q9SV55); test: Yeast two hybrid (Y2H) interaction with NINJA; assay type: binding; details: Y2H screening, PPD1 as bait
T1 construct: expressed in transfected cells; host or cells: yeast strain MaV203
T1 sequence (Q9SV55 with tags, fused parts or gaps): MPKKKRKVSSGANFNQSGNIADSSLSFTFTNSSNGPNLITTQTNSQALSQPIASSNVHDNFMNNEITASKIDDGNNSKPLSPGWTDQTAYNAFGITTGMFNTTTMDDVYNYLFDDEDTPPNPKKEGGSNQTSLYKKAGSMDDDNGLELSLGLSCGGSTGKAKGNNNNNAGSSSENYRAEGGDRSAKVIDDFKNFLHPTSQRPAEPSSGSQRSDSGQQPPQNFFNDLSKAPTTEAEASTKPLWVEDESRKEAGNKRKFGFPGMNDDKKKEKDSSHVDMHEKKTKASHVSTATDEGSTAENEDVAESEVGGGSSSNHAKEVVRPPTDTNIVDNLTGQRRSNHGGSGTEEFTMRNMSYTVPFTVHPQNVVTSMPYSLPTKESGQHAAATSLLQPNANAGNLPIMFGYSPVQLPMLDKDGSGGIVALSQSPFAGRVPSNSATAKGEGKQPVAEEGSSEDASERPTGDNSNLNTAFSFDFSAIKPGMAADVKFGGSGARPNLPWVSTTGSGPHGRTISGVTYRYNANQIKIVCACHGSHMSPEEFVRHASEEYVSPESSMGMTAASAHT
Excerpt: The constructs for Y2H and BiFC assays were generated as follows. Arabidopsis DNA sequences encoding the open reading frames for; At4g14713 (PPD1) and truncation and deletion derivatives of PPD1: PPD1; PPD1Δppd (N-terminal truncation of sequences encoding aa 1-61), PPD1Δtify, (internal deletion of sequences encoding aa 154-186), PPD1Δjas*(C-terminal truncation of sequences encoding aa 229-313) (FIG. 5), At4g28910 (NINJA), At1g15750 (TPL), At1g75080 (BZR1), a synthetic PUAS-35S promoter, and sequences encoding GAL4DBD and c-myc fusion proteins were synthesised and sequence verified by GeneArt. Most sequences were supplied as clones in pENTR221 ready for Gateway cloning into yeast and plant expression vectors. The exception, a promoter sequence for in planta transcription activation assays, incorporating 5′ Xho1 and 3′ Nco1 restriction enzyme sites, was supplied cloned in pMA-RQ. Plasmids for the transient LUC reporter assay: A synthetic promoter with 5×UAS GAL4 DNA binding sites upstream of a −105 bp CaMV35S promoter was cloned into the XhoI-NcoI sites within a dual luciferase construct pNWA62, which contains an intron-containing Firefly Luciferase gene (LUC) and 35Spro::Renilla Luciferase (REN) as an internal standard, to construct pAML7. […]

B1: PPD1: PEAPOD 1 protein of Arabidopsis thaliana, SEQ ID NO: 1 (protein, listed as Arabidopsis thaliana)
chain: MDVGVSPAKSILAKPLKLLTEEDISQLTREDCRKFLKDKGMRRPSWNKSQAIQQVLSLKALYEPGDDSGAGIFRKILVSQPVNPPRVTTTLIEPSNELEACGRVSYPEDNGACHRMDSPRSAEFSGGSGHFVSEKDGHKTTISPRSPAETSELVGQMTIFYSGKVNVYDGIPPEKARSIMHFAANPIDLPENGIFASSRMISKLISKEKMMELPQKGLEKANSSRDSGMEGQANRKVSLQRYREKRKDRKFSKAKKCPGVASSSLEMFLNCQPRMKAAYSQNLGCTGSPLHSQSPESQTKSPNLSVDLNSEGI
Arabidopsis Δppd mutant
  PEAPOD functionality by complementation of the Δppd deletion mutant: functionally equivalent
NINJA
  interaction with NINJA: direct interactor
